According to US20180171313A1 (NOVOZYMES A S, published 2018):

Target: T1, chaperone fusion protein (Chap-MBP): 6x histidine tag, E. coli maltose binding protein, linker and mature G. … (Gallaecimonas pentaromativorans …)
T1 construct: also called LIF
Test: lipase refolded with the chaperone fusion protein, examined as the complex by differential scanning calorimetry
Method: Sample- and reference-solutions (approx. 0.2 ml) were loaded into the calorimeter (reference: buffer without enzyme) from storage conditions at 10° C. and thermally pre-equilibrated for 20 minutes at 20° C. prior to DSC scan from 20° C. to 100° C. Denaturation temperatures were determined at an accuracy of approximately +/−1° C.
In complex with the chaperone fusion protein, the thermostability of the lipase was high with a Td value in the range of 79.9-94.1° C. In a non-parallel trial under similar experimental conditions the thermostability of Lipolase was measured to have a Td value of 77.0° C.

B1: Gallaecimonas pentaromativorans lipase (lipase of the invention), mature part (enzyme)
chain: SGYTQTKYPIVLVHGLFGFDSLAGVDYWYGIPQALSQDGATVYVVNVSAANSTEVRGEQLLVQIDNILALTGAKKVNLIGHSHGGPTARYAASISPGKVASVTSVGGVNWGSRFADALRGTIAPGSVSESVIGAAANAFSSIIEFLSGTPADPQDSVAALNALTTAGSLAFNASYPEGMPSQYCGQGQMQAANGVYYFSWSGASPLTNVLDVTDAALGLTSLVFGESNDGLVSSCSSHLGKVIRDDYAMNHLDEVNQTFGLVSLFETNPKTLYRNQANRLKNLGL
notes: The forward primer adds an ATG start codon through its NdeI site; also called G. pentaromativorans lipase
Does B1 bind?
Result: binds
